Numbering of substitutions follows the chain as printed.
Assays:
Hera full-length = target: T1, Hera full-length (Thermus thermophilus, UniProt O07897 1-510); assay: fluorescence anisotropy; no ATP; 5 mM Mg2+; Anisotropy: 50 mM Tris/HCl pH 7.5, 150 mM NaCl, 5 mM MgCl2 (Fig 2), 25 C, 50 nM RNA; EMSA: same Tris/NaCl, 12% glycerol, 25 C; NMR: 25 mM Bis-Tris/HCl pH 6.0, 50 mM NaCl, 10% D2O, 37 C; conditions: protein: recombinant; chain copies: 2; label: 5'-fluorescein; hairpin with 5' single strand
T1 sequence: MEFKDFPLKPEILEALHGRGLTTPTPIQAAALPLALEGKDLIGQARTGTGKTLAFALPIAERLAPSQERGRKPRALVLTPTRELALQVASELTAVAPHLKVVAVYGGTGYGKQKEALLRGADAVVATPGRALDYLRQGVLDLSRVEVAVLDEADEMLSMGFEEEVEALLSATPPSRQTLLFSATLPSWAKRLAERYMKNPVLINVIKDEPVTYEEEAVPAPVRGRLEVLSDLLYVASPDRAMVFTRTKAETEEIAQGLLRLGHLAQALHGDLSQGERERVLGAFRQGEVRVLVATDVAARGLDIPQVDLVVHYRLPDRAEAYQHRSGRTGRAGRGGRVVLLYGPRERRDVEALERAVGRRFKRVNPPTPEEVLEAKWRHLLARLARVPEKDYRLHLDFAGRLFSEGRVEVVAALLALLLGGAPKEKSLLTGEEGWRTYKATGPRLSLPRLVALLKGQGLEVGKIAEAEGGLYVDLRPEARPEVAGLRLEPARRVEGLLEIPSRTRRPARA

GST-Hera_RBD = target: T2, GST-Hera_RBD (Thermus thermophilus, UniProt O07897 424-510); assay: as above; conditions: protein: recombinant; tags: N-terminal GST; label: 5'-fluorescein; hairpin with 5' single strand
T2 sequence: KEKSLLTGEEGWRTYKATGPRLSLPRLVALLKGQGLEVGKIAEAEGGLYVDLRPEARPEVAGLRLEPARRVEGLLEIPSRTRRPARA

Hera_core = target: T3, Hera_core (Thermus thermophilus, UniProt O07897 1-369); assay: as above; conditions: protein: recombinant; label: 5'-fluorescein; hairpin with 5' single strand
T3 sequence: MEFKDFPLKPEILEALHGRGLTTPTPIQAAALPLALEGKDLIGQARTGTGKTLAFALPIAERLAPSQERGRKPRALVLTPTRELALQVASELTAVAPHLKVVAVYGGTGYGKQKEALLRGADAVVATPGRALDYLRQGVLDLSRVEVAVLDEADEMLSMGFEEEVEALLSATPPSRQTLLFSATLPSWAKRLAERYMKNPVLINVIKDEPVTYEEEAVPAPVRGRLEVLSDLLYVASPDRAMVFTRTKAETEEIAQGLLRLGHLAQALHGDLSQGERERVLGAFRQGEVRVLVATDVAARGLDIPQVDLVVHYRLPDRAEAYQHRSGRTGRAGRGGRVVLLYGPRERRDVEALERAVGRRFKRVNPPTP

Hera_RBD K463A = target: T4, Hera_RBD K463A (Thermus thermophilus, UniProt O07897 424-510, K463A); assay: fluorescence anisotropy; 5 mM Mg2+; text also says abolishes binding; Anisotropy: 50 mM Tris/HCl pH 7.5, 150 mM NaCl, 5 mM MgCl2 (Fig 2), 25 C, 50 nM RNA; EMSA: same Tris/NaCl, 12% glycerol, 25 C; NMR: 25 mM Bis-Tris/HCl pH 6.0, 50 mM NaCl, 10% D2O, 37 C; conditions: protein: recombinant; label: 5'-fluorescein; hairpin with 5' single strand
T4 sequence: T2 sequence with K40A

GCAGGUCCCAAGGGUUGGGCUGUUCGCCCAUU (structured_RNA) [32mer]
Kd (Hera full-length): 130 ± 70 nM | Kd (GST-Hera_RBD): 450 ± 36 nM | Kd (Hera_core): 1000 ± 180 nM | binding signal (Hera_RBD K463A): > 25 fold Kd increase
